Laboratory results reported in IntAct's records for PubMed 26918958.

B1: Latent-transforming growth factor beta-binding protein 4 (Homo sapiens), Q8N2S1-1 (parent)
chain: MPRPGTSGRRPLLLVLLLPLFAAATSAASPSPSPSQVVEVPGVPSRPASVAVCRCCPGQTSRRSRCIRAFCRVRSCQPKKCAGPQRCLNPVPAVPSPSPSVRKRQVSLNWQPLTLQEARALLKRRRPRGPGGRGLLRRRPPQRAPAGKAPVLCPLICHNGGVCVKPDRCLCPPDFAGKFCQLHSSGARPPAPAVPGLTRSVYTMPLANHRDDEHGVASMVSVHVEHPQEASVVVHQVERVSGPWEEADAEAVARAEAAARAEAAAPYTVLAQSAPREDGYSDASGFGYCFRELRGGECASPLPGLRTQEVCCRGAGLAWGVHDCQLCSERLGNSERVSAPDGPCPTGFERVNGSCEDVDECATGGRCQHGECANTRGGYTCVCPDGFLLDSSRSSCISQHVISEAKGPCFRVLRDGGCSLPILRNITKQICCCSRVGKAWGRGCQLCPPFGSEGFREICPAGPGYHYSASDLRYNTRPLGQEPPRVSLSQPRTLPATSRPSAGFLPTHRLEPRPEPRPDPRPGPELPLPSIPAWTGPEIPESGPSSGMCQRNPQVCGPGRCISRPSGYTCACDSGFRLSPQGTRCIDVDECRRVPPPCAPGRCENSPGSFRCVCGPGFRAGPRAAECLDVDECHRVPPPCDLGRCENTPGSFLCVCPAGYQAAPHGASCQDVDECTQSPGLCGRGACKNLPGSFRCVCPAGFRGSACEEDVDECAQEPPPCGPGRCDNTAGSFHCACPAGFRSRGPGAPCQDVDECARSPPPCTYGRCENTEGSFQCVCPMGFQPNTAGSECEDVDECENHLACPGQECVNSPGSFQCRTCPSGHHLHRGRCTDVDECSSGAPPCGPHGHCTNTEGSFRCSCAPGYRAPSGRPGPCADVNECLEGDFCFPHGECLNTDGSFACTCAPGYRPGPRGASCLDVDECSEEDLCQSGICTNTDGSFECICPPGHRAGPDLASCLDVDECRERGPALCGSQRCENSPGSYRCVRDCDPGYHAGPEGTCDDVDECQEYGPEICGAQRCENTPGSYRCTPACDPGYQPTPGGGCQDVDECRNRSFCGAHAVCQNLPGSFQCLCDQGYEGARDGRHCVDVNECETLQGVCGAALCENVEGSFLCVCPNSPEEFDPMTGRCVPPRTSAGTFPGSQPQAPASPVLPARPPPPPLPRRPSTPRQGPVGSGRRECYFDTAAPDACDNILARNVTWQECCCTVGEGWGSGCRIQQCPGTETAEYQSLCPHGRGYLAPSGDLSLRRDVDECQLFRDQVCKSGVCVNTAPGYSCYCSNGYYYHTQRLECIDNDECADEEPACEGGRCVNTVGSYHCTCEPPLVLDGSQRRCVSNESQSLDDNLGVCWQEVGADLVCSHPRLDRQATYTECCCLYGEAWGMDCALCPAQDSDDFEALCNVLRPPAYSPPRPGGFGLPYEYGPDLGPPYQGLPYGPELYPPPALPYDPYPPPPGPFARREAPYGAPRFDMPDFEDDGGPYGESEAPAPPGPGTRWPYRSRDTRRSFPEPEEPPEGGSYAGSLAEPYEELEAEECGILDGCTNGRCVRVPEGFTCRCFDGYRLDMTRMACVDINECDEAEAASPLCVNARCLNTDGSFRCICRPGFAPTHQPHHCAPARPRA

Variants of: B1
Settings: with tgfb1_human TGFB1, P01137
tgfb1_human TGFB1, P01137, sequence (P01137 whole entry): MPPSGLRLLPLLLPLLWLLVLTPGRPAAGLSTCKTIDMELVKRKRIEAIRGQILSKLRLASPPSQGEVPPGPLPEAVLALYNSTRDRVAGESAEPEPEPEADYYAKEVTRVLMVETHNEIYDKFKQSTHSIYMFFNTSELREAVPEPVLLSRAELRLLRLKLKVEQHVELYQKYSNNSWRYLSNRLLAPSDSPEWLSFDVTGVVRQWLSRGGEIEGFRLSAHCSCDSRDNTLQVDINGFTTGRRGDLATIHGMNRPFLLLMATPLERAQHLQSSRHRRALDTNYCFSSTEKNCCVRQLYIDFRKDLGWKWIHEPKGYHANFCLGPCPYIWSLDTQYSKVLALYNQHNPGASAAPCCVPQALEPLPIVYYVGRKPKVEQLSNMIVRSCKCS

| Variant | effect of a mutation on the interaction |
| --- | --- |
| V194I;T787A;T820A;T1141M | with no effect |
| T1141M | with no effect |
